US20260201039A1

Molecular target: human CD28 in its native form displayed on the cell surface (human) (UniProt P10747)
Test: cell-based or functional assay

- IL2 secretion, PBMC of 20 donors on plate-coated protein, 72 h: < 80000 pg/mL
Substance: TGN1412 (IgG4) (antibody)
